Key:
[1] = tested on: neutrophils in LPS-inflamed lungs; conditions: mouse, in vivo, iv
Method: Mice received IV LPS as a model of sepsis/ARDS and were injected five hours later with liposomes (approx. 5 mg/kg). Lung uptake provides a measure of tropism to marginated neutrophils. D5=5 DBCO per protein (IgG) on the tag. D5=5 DBCO per IgG on the tag. D20=20 per IgG on the tag. 25% chol=25% (moles cholesterol/total moles of lipid) of the lipids in liposomes was cholesterol. 25% cholesterol=25% (moles cholesterol/total moles of lipid) of the lipids in liposomes was cholesterol.
Radiolabeled clone 1A8 anti-Ly6G antibody was administered to determine the location and concentration of neutrophils in naïve mice and mice exposed to intravenous (IV) lipopolysaccharides (LPS) (FIG. 1A).
Previous work has traced the neutrophil response to bacteria in the lungs, determining that pulmonary neutrophils pursue and engulf active bacteria following either intravenous infection or infection of the airspace in the lungs. We injected heat-inactivated, oxidized, and fixed E. coli in naïve and IV-LPS-injured mice.
Neither nanoparticle was functionalized with antibodies or other affinity tags. The protein component of each particle was labeled with ^125I for tracing in biodistributions assessed 30 minutes after IV administration of nanoparticles.
Variants of LDNG structure, crosslinked protein NP structure, and NP structure based on charged protein interactions were traced in naïve control and IV-LPS-injured mice. As examples of highly crystalline protein-based NPs based on site-specific protein interactions (rather than site-indiscriminate interactions leading to crosslinker, gelation, or charge-based protein NPs), we also traced viruses in naïve and LPS-treated mice. Adding in liposomes and polystyrene NPs as example nanostructures not based on protein, we undertook a study to evaluate how aspects of NP structure including size, composition, surface chemistry, and crystallinity impact NP affinity for LPS-injured lungs.

[2] = tested on: ex vivo human lungs
From the text: Finally, fluorescent or ^125I-labeled LDNGs were infused via arterial catheter into ex vivo human lungs excluded from organ donation due to conditions (including edema and injury) resembling those found in ARDS patients. Immediately prior to LDNG administration, tissue dye was infused via the same catheter to stain regions of the lungs directly perfused by the chosen branch of the pulmonary artery (FIG. 7C). After infusion of LDNGs, phosphate buffered saline infusion rinsed away unbound particles. Perfused regions of the lungs were dissected and divided into ˜1 g segments, divided into regions deemed to have high, medium, or low levels of staining with tissue dye. For lungs receiving fluorescent LDNGs, well-perfused and poorly-perfused regions were selected for sectioning and fluorescent imaging. Fluorescent signal from LDNGs was clearly detectable in sections of well-perfused tissue, but not poorly-perfused tissue (FIG. 7D). In experiments with ^125I-labeled LDNGs, ^131I-labeled ferritin was concurrently infused (i.e. a mix of ferritin and LDNGs was infused) as an internal control particle shown to have no affinity for injured mouse lungs. For LDNGs and ferritin infused into the same lungs via the same branch of the pulmonary artery, LDNGs retained in the lungs at 52.15% initial dose and ferritin retained at 9.27% initial dose (FIG. 7E). […]

Substance	Lung uptake, percent of initial dose [1] [% initial dose]	LPS:naïve lung uptake ratio [1]	Retained in the lungs [2] [% initial dose]
bovine albumin: isolated radiolabeled protein	1.38	–	–
ferritin	0.68	1.15	9.27
transferrin: isolated radiolabeled protein	1.45	–	–
lysozyme: isolated radiolabeled protein	1.34	–	–
